Data from PMC3672285 (RNA Biology, 2013).

B1: His-tagged Rrp41 of S. solfataricus (natural protein, UniProt Q9UXC2 1-248, looked up)
chain: MREMLQVERPKLILDDGKRTDGRKPDELRSIKIELGVLKNADGSAIFEMGNTKAIAAVYGPKEMHPRHLSLPDRAVLRVRYHMTPFSTDERKNPAPSRREIELSKVIREALESAVLVELFPRTAIDVFTEILQADAGSRLVSLMAASLALADAGIPMRDLIAGVAVGKADGVIILDLNETEDMWGEADMPIAMMPSLNQVTLFQLNGSMTPDEFRQAFDLAVKGINIIYNLEREALKSKYVEFKEEGV
B2: His-tagged Rrp4 of S. solfataricus (natural protein, UniProt Q9UXC4 1-249, looked up)
chain: MNMSQSQKIVLQPRSIVVPGELLAEGEFQIPWSPYILKINSKYYSTVVGLFDVKDTQFEVIPLEGSFYYPKINDIVIGLVEDVEIYGWVVDIKAPYKAYLPASNLLGRSINVGEDLRRYLDVGDYVIARIENFDRSIDPVLSVKGKDLGRVSNGIVIDIMPVKVPRVIGKNKSMYETLTSKSGCSIFVANNGRIWATCPSRFSEEILIEAIRKIENESHIKGLTDRIKQFIEEKLGERNASSGETKTNS
B3: His-tagged Csl4 of S. solfataricus (natural protein, UniProt Q980J9 1-189, looked up)
chain: MRTQGELTLPGEELAVIEEFMTGDGTYEQNGIVRAAVVGKIFYDMLNRKSNVLGFKKIIFQHLKKAKYVIGIVNSIKEDSALVSIVGIEERGLASPISAYLHISQISNKKINNVTDAIKIGDVIKAKLLSYTFPLALTIKMKDLGVIYARCSRCGYLLIKQDENNLKCQRCGNIEQRKIGSYMVKKGGN
B4: His-tagged DnaG of S. solfataricus (natural protein, UniProt P95980 1-406, looked up)
chain: MSFQMKYDIRLRFEVEGIVEKTDVIGAIFGQTENLFGDEFDLRELQDKGRLGRIIVEVKTKGGKSEGEIIIPSNLDRIETALIAAMVESVDKVGPYNSKFELIEIEDIRAEKLKKIIERAKGILSSWSKEKSLDIKEVINEISSAVKVGEITEYGPERLPAGPDVDKDPNLIIVEGRADVINLLRYGYKNVIAVEGATSRIPETLINLSKMKKTVIAFLDGDHGGDLILKELLSNNVKIDFVARAPIGREVEELTGKEIAKALSNMMPLTQYLKKVQEAEQAIAKNVIAKEEKPIQSETTQQVVQITLPQNILEEIKKLPGTLEGVLYDNNWNLIEKVQVRDIIPKLEAYEDNKVAYIIFDGVITQRLLDLASQKNIKMIIGARIGGINKRPQNVDILTFTDIISS
B5: Strep-tagged Csl4 of S. solfataricus (natural protein, UniProt Q980J9 1-189, looked up)
chain: B3 chain

Tests used:
[1] = target: T1, His-tagged Rrp42 of S. solfataricus (S. solfataricus, UniProt Q9UXC0 1-275); test: SEC
T1 sequence (looked up): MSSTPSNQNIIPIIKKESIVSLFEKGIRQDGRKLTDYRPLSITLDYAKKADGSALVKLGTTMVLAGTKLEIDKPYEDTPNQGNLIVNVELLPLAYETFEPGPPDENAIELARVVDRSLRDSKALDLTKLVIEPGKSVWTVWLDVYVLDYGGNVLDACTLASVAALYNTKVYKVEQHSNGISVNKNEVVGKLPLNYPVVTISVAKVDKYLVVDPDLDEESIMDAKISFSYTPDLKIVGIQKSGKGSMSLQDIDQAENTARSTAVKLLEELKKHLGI

[2] = target: T2, Rrp41-Rrp42 hexamer, His-tagged subunits (S. solfataricus, UniProt Q9UXC2 1-248; Q9UXC0 1-275); test: co-IP
T2 sequence (looked up) 1: B1 chain
T2 sequence (looked up) 2: T1 sequence (looked up)

[3] = target: T3, Strep-Csl4-exosome (Strep-Csl4, His6-Rrp41, His6-Rrp42) (S. solfataricus, UniProt Q9UXC2 1-248; Q9UXC0 1-275; Q980J9 1-189); test: pull-down
T3 sequence (looked up) 1: B1 chain
T3 sequence (looked up) 2: T1 sequence (looked up)
T3 sequence (looked up) 3: B3 chain

[4] = target: B2; test: pull-down

Binder: B1
- binding result [1]: binds

Binder: B2
- binding result [2]: binds

Binder: B3
- binding result [2]: binds

Binder: B4
- binding result [3]: binds

Binder: B5
- binding result [4]: binds
